For this test, the target named is 人源LILRB1 (human LILRB1, on HEK293T-hLILRB1, Jurkat-hLILRB1 or Daudi cells) (human). The test can be described thus: flow cytometry, blocking of PE-HLA-G tetramer (2 μg/mL) binding to HEK293T-hLILRB1 cells. For orientation: A flow cytometer gives signals particle by particle.

With “BION-202 (Biond Biologics公司研发的靶向LILRB1人源化IgG4单克隆抗体) (antibody)”, the concentration for half-maximal inhibition (IC50) (commonly the concentration that inhibits the measured activity by half) is 0.021 µg/mL.

Values taken from CN117756939A.
